Values of other authors as cited in article PMC8369179.

Target: RAGE 23-121 (Homo sapiens) (UniProt Q15109)
Chain of UniProt Q15109 (Q15109 23-121): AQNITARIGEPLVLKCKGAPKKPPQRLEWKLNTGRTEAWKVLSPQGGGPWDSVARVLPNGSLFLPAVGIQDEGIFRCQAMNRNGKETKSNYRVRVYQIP

## HMGB1 1-215 (from UniProt P09429)
  Kd: 48.3 nM
